Results published in article PMC12627087, “mRNA delivery of circumsporozoite protein epitope-based malaria vaccines induces protection in a mouse model” (NPJ Vaccines, 2025).
Residue numbers refer to the chain shown, from its start.

B1: P9 24mer (other)
chain: KQENWYSLKKNSRSLLSKDIIKLLNEQVNKEMQSSNLYMSMSSWCYTHSLDGAGLFLFDHAAEEYEHAKKLIIFLNENNVPVNLTSISAPEHNFTGLTQIFQKAYEHEQNISESINNITDHAIKSKDHATFNFLQWYVAEQHEEEVLFKDILDKIELIGNENHGLYLADQYVKGIAKSRKS
modifications: glycosylated (engineered glycosylation sites)
notes: Plasmodium falciparum circumsporozoite protein (PfCSP), strain 3D7; Self-assembling ferritin nanoparticle; cloned into pHLsec between the leader and a double stop codon (AgeI/KpnI); source: FreeStyle 293 F cells, transfected, purified (snowdrop lectin agarose, Superose 6 SEC); copies: 24
B2: P2 24mer (other)
chain: SNTRVLNELNYDNAGLSKDIIKLLNEQVNKEMQSSNLYMSMSSWCYTHSLDGAGLFLFDHAAEEYEHAKKLIIFLNENNVPVNLTSISAPEHNFTGLTQIFQKAYEHEQNISESINNITDHAIKSKDHATFNFLQWYVAEQHEEEVLFKDILDKIELIGNENHGLYLADQYVKGIAKSRKS
modifications: glycosylated (engineered glycosylation sites)
notes: as for B1
B3: P15 24mer (other)
chain: DNEKLRKPKHKKLKQLSKDIIKLLNEQVNKEMQSSNLYMSMSSWCYTHSLDGAGLFLFDHAAEEYEHAKKLIIFLNENNVPVNLTSISAPEHNFTGLTQIFQKAYEHEQNISESINNITDHAIKSKDHATFNFLQWYVAEQHEEEVLFKDILDKIELIGNENHGLYLADQYVKGIAKSRKS
modifications: glycosylated (engineered glycosylation sites)
notes: as for B1
B4: P9 60mer (other)
chain: KQENWYSLKKNSRSLGSGNGTGGSMQIYEGKLTAEGLRFGIVASRANHALVDRLVEGAIDAIVRHGGREEDITLVRVCGSWEIPVAAGELARKENISAVIAIGVLCRGATPSFDYIASEVSKGLADLSLELRKPITFGVITADTLEQAIEAAGTCHGNKGWEAALCAIEMANLFKSLRGGSNGTGGSGGSNGT
modifications: glycosylated (engineered glycosylation sites)
notes: Plasmodium falciparum circumsporozoite protein (PfCSP), strain 3D7; linker between the peptide and lumazine synthase; C-terminal extension with two added glycosylation sites; Self-assembling lumazine synthase nanoparticle; cloned into pHLsec between the leader and a double stop codon (AgeI/KpnI); source: FreeStyle 293 F cells, transfected, purified (snowdrop lectin agarose, Superose 6 SEC); …
B5: P1 60mer (other)
chain: YGSSSNTRVLNELNYGSGNGTGGSMQIYEGKLTAEGLRFGIVASRANHALVDRLVEGAIDAIVRHGGREEDITLVRVCGSWEIPVAAGELARKENISAVIAIGVLCRGATPSFDYIASEVSKGLADLSLELRKPITFGVITADTLEQAIEAAGTCHGNKGWEAALCAIEMANLFKSLRGGSNGTGGSGGSNGT
modifications: glycosylated (engineered glycosylation sites)
notes: as for B4
B6: C-term WT 60mer (other)
chain: EPSDKHIKEYLNKIQNSLSTEWSPCSVTCGNGIQVRIKPGSANKPKDELDYANDIEKKICKMEKCGGSMQIYEGKLTAEGLRFGIVASRANHALVDRLVEGAIDAIVRHGGREEDITLVRVCGSWEIPVAAGELARKENISAVIAIGVLCRGATPSFDYIASEVSKGLADLSLELRKPITFGVITADTLEQAIEAAGTCHGNKGWEAALCAIEMANLFKSLRGGSNGTGGSGGSNGT
modifications: glycosylated (engineered glycosylation sites)
notes: Plasmodium falciparum circumsporozoite protein (PfCSP), strain 3D7; wild-type C-terminal αTSR domain, without the C-terminal linker; linker; C-terminal extension with two added glycosylation sites; Self-assembling lumazine synthase nanoparticle; cloned into pHLsec between the leader and a double stop codon (AgeI/KpnI); also called wild-type C-terminal domain on 60mer; WT αTSR 60mer; source: …
B7: C-term MD1 60mer (other)
chain: B6 chain with K5N, I7T, E9S, L11Y, N12A, D47A, E48N, D50T
modifications: glycosylated (engineered glycosylation sites)
notes: Plasmodium falciparum circumsporozoite protein (PfCSP), strain 3D7; C-terminal αTSR domain, Rosetta-designed variant MD1; linker; C-terminal extension with two added glycosylation sites; Self-assembling lumazine synthase nanoparticle; cloned into pHLsec between the leader and a double stop codon (AgeI/KpnI); also called modified-1 C-term 60mer; MD1 αTSR 60mer; source: FreeStyle 293 F cells, …
B8: P8 24mer (other)
chain: NYYGKQENWYSLKKNLSKDIIKLLNEQVNKEMQSSNLYMSMSSWCYTHSLDGAGLFLFDHAAEEYEHAKKLIIFLNENNVPVNLTSISAPEHNFTGLTQIFQKAYEHEQNISESINNITDHAIKSKDHATFNFLQWYVAEQHEEEVLFKDILDKIELIGNENHGLYLADQYVKGIAKSRKS
modifications: glycosylated (engineered glycosylation sites)
notes: as for B1
B9: P2 60mer (other)
chain: SNTRVLNELNYDNAGGSGNGTGGSMQIYEGKLTAEGLRFGIVASRANHALVDRLVEGAIDAIVRHGGREEDITLVRVCGSWEIPVAAGELARKENISAVIAIGVLCRGATPSFDYIASEVSKGLADLSLELRKPITFGVITADTLEQAIEAAGTCHGNKGWEAALCAIEMANLFKSLRGGSNGTGGSGGSNGT
modifications: glycosylated (engineered glycosylation sites)
notes: as for B4
B10: P1 24mer (other)
chain: YGSSSNTRVLNELNYLSKDIIKLLNEQVNKEMQSSNLYMSMSSWCYTHSLDGAGLFLFDHAAEEYEHAKKLIIFLNENNVPVNLTSISAPEHNFTGLTQIFQKAYEHEQNISESINNITDHAIKSKDHATFNFLQWYVAEQHEEEVLFKDILDKIELIGNENHGLYLADQYVKGIAKSRKS
modifications: glycosylated (engineered glycosylation sites)
notes: as for B1
B11: J2 60mer (other)
chain: KLKQPADGNPDPNANPNVDPNANPNVDPGSGNGTGGSMQIYEGKLTAEGLRFGIVASRANHALVDRLVEGAIDAIVRHGGREEDITLVRVCGSWEIPVAAGELARKENISAVIAIGVLCRGATPSFDYIASEVSKGLADLSLELRKPITFGVITADTLEQAIEAAGTCHGNKGWEAALCAIEMANLFKSLRGGSNGTGGSGGSNGT
modifications: glycosylated (engineered glycosylation sites)
notes: Plasmodium falciparum circumsporozoite protein (PfCSP), strain 3D7; J2, minimal junction peptide beginning with Region I; linker between the peptide and lumazine synthase; C-terminal extension with two added glycosylation sites; Self-assembling lumazine synthase nanoparticle; cloned into pHLsec between the leader and a double stop codon (AgeI/KpnI); also called peptide J2-60mer; short junctional …
B12: (NANP)6 60mer (other)
chain: NANPNANPNANPNANPNANPNANPGSGNGTGGSMQIYEGKLTAEGLRFGIVASRANHALVDRLVEGAIDAIVRHGGREEDITLVRVCGSWEIPVAAGELARKENISAVIAIGVLCRGATPSFDYIASEVSKGLADLSLELRKPITFGVITADTLEQAIEAAGTCHGNKGWEAALCAIEMANLFKSLRGGSNGTGGSGGSNGT
modifications: glycosylated (engineered glycosylation sites)
notes: Plasmodium falciparum circumsporozoite protein (PfCSP), strain 3D7; (NANP)6, 24-residue NANP repeat peptide; linker between the peptide and lumazine synthase; C-terminal extension with two added glycosylation sites; Self-assembling lumazine synthase nanoparticle; cloned into pHLsec between the leader and a double stop codon (AgeI/KpnI); also called (NANP)6 peptide 60mer; source: FreeStyle 293 F …
B13: P8 60mer (other)
chain: NYYGKQENWYSLKKNGSGNGTGGSMQIYEGKLTAEGLRFGIVASRANHALVDRLVEGAIDAIVRHGGREEDITLVRVCGSWEIPVAAGELARKENISAVIAIGVLCRGATPSFDYIASEVSKGLADLSLELRKPITFGVITADTLEQAIEAAGTCHGNKGWEAALCAIEMANLFKSLRGGSNGTGGSGGSNGT
modifications: glycosylated (engineered glycosylation sites)
notes: as for B4
B14: J3R3 60mer (other)
chain: KLKQPADGNPDPNANPNVDPNANPNVDPNANPNVDPNANPNANPNANPGSGNGTGGSMQIYEGKLTAEGLRFGIVASRANHALVDRLVEGAIDAIVRHGGREEDITLVRVCGSWEIPVAAGELARKENISAVIAIGVLCRGATPSFDYIASEVSKGLADLSLELRKPITFGVITADTLEQAIEAAGTCHGNKGWEAALCAIEMANLFKSLRGGSNGTGGSGGSNGT
modifications: glycosylated (engineered glycosylation sites)
notes: Plasmodium falciparum circumsporozoite protein (PfCSP), strain 3D7; J3R3, junctional peptide with three added NANP repeats; linker between the peptide and lumazine synthase; C-terminal extension with two added glycosylation sites; Self-assembling lumazine synthase nanoparticle; cloned into pHLsec between the leader and a double stop codon (AgeI/KpnI); source: FreeStyle 293 F cells, transfected, …
B15: J3 60mer (other)
chain: KLKQPADGNPDPNANPNVDPNANPNVDPNANPNVDPGSGNGTGGSMQIYEGKLTAEGLRFGIVASRANHALVDRLVEGAIDAIVRHGGREEDITLVRVCGSWEIPVAAGELARKENISAVIAIGVLCRGATPSFDYIASEVSKGLADLSLELRKPITFGVITADTLEQAIEAAGTCHGNKGWEAALCAIEMANLFKSLRGGSNGTGGSGGSNGT
modifications: glycosylated (engineered glycosylation sites)
notes: Plasmodium falciparum circumsporozoite protein (PfCSP), strain 3D7; J3, full-length junctional peptide beginning with Region I; linker between the peptide and lumazine synthase; C-terminal extension with two added glycosylation sites; Self-assembling lumazine synthase nanoparticle; cloned into pHLsec between the leader and a double stop codon (AgeI/KpnI); also called peptide J3-60mer; source: …
B16: C-term MD1 24mer (other)
chain: EPSDNHTKSYYAKIQNSLSTEWSPCSVTCGNGIQVRIKPGSANKPKANLTYANDIEKKICKMEKCGGSLSKDIIKLLNEQVNKEMQSSNLYMSMSSWCYTHSLDGAGLFLFDHAAEEYEHAKKLIIFLNENNVPVNLTSISAPEHNFTGLTQIFQKAYEHEQNISESINNITDHAIKSKDHATFNFLQWYVAEQHEEEVLFKDILDKIELIGNENHGLYLADQYVKGIAKSRKS
modifications: glycosylated (engineered glycosylation sites)
notes: Plasmodium falciparum circumsporozoite protein (PfCSP), strain 3D7; C-terminal αTSR domain, Rosetta-designed variant MD1; linker; Self-assembling ferritin nanoparticle; cloned into pHLsec between the leader and a double stop codon (AgeI/KpnI); also called modified-1 C-term 24mer; MD1 αTSR 24mer; source: FreeStyle 293 F cells, transfected, purified (snowdrop lectin agarose, Superose 6 SEC); …
B17: C-term WT 24mer (other)
chain: B16 chain with N5K, T7I, S9E, Y11L, A12N, A47D, N48E, T50D
modifications: glycosylated (engineered glycosylation sites)
notes: Plasmodium falciparum circumsporozoite protein (PfCSP), strain 3D7; wild-type C-terminal αTSR domain, without the C-terminal linker; linker; Self-assembling ferritin nanoparticle; cloned into pHLsec between the leader and a double stop codon (AgeI/KpnI); also called wild-type C-terminal domain on 24mer; WT αTSR 24mer; source: FreeStyle 293 F cells, transfected, purified (snowdrop lectin agarose, …)
B18: (NANP)6 24mer (other)
chain: NANPNANPNANPNANPNANPNANPLSKDIIKLLNEQVNKEMQSSNLYMSMSSWCYTHSLDGAGLFLFDHAAEEYEHAKKLIIFLNENNVPVNLTSISAPEHNFTGLTQIFQKAYEHEQNISESINNITDHAIKSKDHATFNFLQWYVAEQHEEEVLFKDILDKIELIGNENHGLYLADQYVKGIAKSRKS
modifications: glycosylated (engineered glycosylation sites)
notes: Plasmodium falciparum circumsporozoite protein (PfCSP), strain 3D7; (NANP)6, 24-residue NANP repeat peptide; Self-assembling ferritin nanoparticle; cloned into pHLsec between the leader and a double stop codon (AgeI/KpnI); source: FreeStyle 293 F cells, transfected, purified (snowdrop lectin agarose, Superose 6 SEC); copies: 24
B19: J3 24mer (other)
chain: KLKQPADGNPDPNANPNVDPNANPNVDPNANPNVDPLSKDIIKLLNEQVNKEMQSSNLYMSMSSWCYTHSLDGAGLFLFDHAAEEYEHAKKLIIFLNENNVPVNLTSISAPEHNFTGLTQIFQKAYEHEQNISESINNITDHAIKSKDHATFNFLQWYVAEQHEEEVLFKDILDKIELIGNENHGLYLADQYVKGIAKSRKS
modifications: glycosylated (engineered glycosylation sites)
notes: Plasmodium falciparum circumsporozoite protein (PfCSP), strain 3D7; J3, full-length junctional peptide beginning with Region I; Self-assembling ferritin nanoparticle; cloned into pHLsec between the leader and a double stop codon (AgeI/KpnI); also called peptide J3-24mer; source: FreeStyle 293 F cells, transfected, purified (snowdrop lectin agarose, Superose 6 SEC); copies: 24
B20: J2 24mer (other)
chain: KLKQPADGNPDPNANPNVDPNANPNVDPLSKDIIKLLNEQVNKEMQSSNLYMSMSSWCYTHSLDGAGLFLFDHAAEEYEHAKKLIIFLNENNVPVNLTSISAPEHNFTGLTQIFQKAYEHEQNISESINNITDHAIKSKDHATFNFLQWYVAEQHEEEVLFKDILDKIELIGNENHGLYLADQYVKGIAKSRKS
modifications: glycosylated (engineered glycosylation sites)
notes: Plasmodium falciparum circumsporozoite protein (PfCSP), strain 3D7; J2, minimal junction peptide beginning with Region I; Self-assembling ferritin nanoparticle; cloned into pHLsec between the leader and a double stop codon (AgeI/KpnI); also called peptide J2-24mer; source: FreeStyle 293 F cells, transfected, purified (snowdrop lectin agarose, Superose 6 SEC); copies: 24
B21: J3R3 24mer (other)
chain: KLKQPADGNPDPNANPNVDPNANPNVDPNANPNVDPNANPNANPNANPLSKDIIKLLNEQVNKEMQSSNLYMSMSSWCYTHSLDGAGLFLFDHAAEEYEHAKKLIIFLNENNVPVNLTSISAPEHNFTGLTQIFQKAYEHEQNISESINNITDHAIKSKDHATFNFLQWYVAEQHEEEVLFKDILDKIELIGNENHGLYLADQYVKGIAKSRKS
modifications: glycosylated (engineered glycosylation sites)
notes: Plasmodium falciparum circumsporozoite protein (PfCSP), strain 3D7; J3R3, junctional peptide with three added NANP repeats; Self-assembling ferritin nanoparticle; cloned into pHLsec between the leader and a double stop codon (AgeI/KpnI); source: FreeStyle 293 F cells, transfected, purified (snowdrop lectin agarose, Superose 6 SEC); copies: 24

Biological target: the molecule itself
Assay: SEC + SEC-MALS + other: negative stain electron microscopy; self-assembly of the protomer into the nanoparticle; Superose 6 10/300 at 0.5 ml/min with DAWN HELEOS II and Optilab T-rEX detectors, glycan mass corrected by protein-conjugate analysis; nsEM at 0.1 mg/ml in HBS, uranyl formate

| Protein | binding result |
| --- | --- |
| B1 | binds |
| B2 | binds |
| B3 | binds |
| B4 | binds |
| B5 | binds |
| B6 | binds |
| B7 | binds |
| B8 | binds |
| B9 | binds |
| B10 | binds |
| B11 | binds |
| B12 | binds |
| B13 | binds |
| B14 | binds |
| B15 | binds |
| B16 | binds |
| B17 | binds |
| B18 | binds |
| B19 | binds |
| B20 | binds |
| B21 | binds |
